Results reported in patent publication US20230151095A1 (published 2023).

B1: XENP40888 (LB_1002, 2+1 VHVL) (antibody)
chain 1: EVQLLESGGGLVQPGGSLRLSCAVSGFSLSSYGVIWVRQAPGKGLEYVSWVSSGGSTNYASSVKGRFTISRDTSKNTVYLQMNSLRAEDTAVYFCARGATNSGTDIWGPGTLVTVSSASTKGPSVFPLAPSSKSTSGGTAALGCLVKDYFPEPVTVSWNSGALTSGVHTFPAVLQSSGLYSLSSVVTVPSSSLGTQTYICNVNHKPSDTKVDKKVEPKSCDKTHTCPPCPAPELLGGPSVFLFPPKPKDTLMISRTPEVTCVVVDVSHEDPEVKFNWYVDGVEVHNAKTKPREEEYNSTYRVVSVLTVLHQDWLNGKEYKCKVSNKALPAPIEKTISKAKGQPREPQVYTLPPSREEMTKNQVSLTCDVSGFYPSDIAVEWESDGQPENNYKTTPPVLDSDGSFFLYSKLTVDKSRWEQGDVFSCSVMHEALHNHYTQKSLSLSPGK
chain 2: EVQLLESGGGLVQPGGSLRLSCAVSGFSLSSYGVIWVRQAPGKGLEYVSWVSSGGSTNYASSVKGRFTISRDTSKNTVYLQMNSLRAEDTAVYFCARGATNSGTDIWGPGTLVTVSSASTKGPSVFPLAPSSKSTSGGTAALGCLVKDYFPEPVTVSWNSGALTSGVHTFPAVLQSSGLYSLSSVVTVPSSSLGTQTYICNVNHKPSNTKVDKKVEPKSCGGGGSGGGGSEVQLVESGGGLVKPGGSLRLSCAASGFTFSSYSMNWVRQAPGKGLEWVSSISSSSSYIYYADSVKGRFTISRDNAKNSLYLQMNSLRAEDTAVYYCARGAPMGAAAGWFDPWGQGTLVTVSSGKPGSGKPGSGKPGSGKPGSDIQMTQSPSSVSASVGDRVTITCRASQGISSWLAWYQQKPGKAPKLLIYAASSLQSGVPSRFSGSGSGTDFTLTISSLQPEDFATYYCQQGVSFPRTFGGGTKVEIKGGGGSGGGGSKTHTCPPCPAPELLGGPSVFLFPPKPKDTLMISRTPEVTCVVVDVSHEDPEVKFNWYVDGVEVHNAKTKPREEQYNSTYRVVSVLTVLHQDWLNGKEYKCKVSNKALPAPIEKTISKAKGQPREPQVYTLPPSREQMTKNQVKLTCLVKGFYPSDIAVEWESNGQPENNYKTTPPVLDSDGSFFLYSKLTVDKSRWQQGNVFSCSVMHEALHNHYTQKSLSLSPGK
chain 3: DIVMTQSPSSLSASVGDRVTITCRASQSINSWLSWYQQKPGKPPKLLIYGASNLASGVPSRFKGSGSGTDFTLTISSLQPEDFATYYCQNNYGIIAAGATFGGGTKVEIKRTVAAPSVFIFPPSDEQLKSGTASVVCLLNNFYPREAKVQWKVDNALQSGNSQESVTEQDSKDSTYSLSSTLTLSKADYEKHKVYACEVTHQGLSSPVTKSFNRGEC
B2: XENP41343 (1D2B4, mAb-scFv VLVH) (antibody)
chain 1: B1 chain 1
chain 2: not shown
chain 3: B1 chain 3
B3: XENP40552 (LB_1001, mAb-scFv VHVL) (antibody)
chain 1: B1 chain 1
chain 2: not shown
chain 3: B1 chain 3
B4: XENP41338 (LB_1002, 2+1 VLVH) (antibody)
chain 1: B1 chain 1
chain 2: EVQLLESGGGLVQPGGSLRLSCAVSGFSLSSYGVIWVRQAPGKGLEYVSWVSSGGSTNYASSVKGRFTISRDTSKNTVYLQMNSLRAEDTAVYFCARGATNSGTDIWGPGTLVTVSSASTKGPSVFPLAPSSKSTSGGTAALGCLVKDYFPEPVTVSWNSGALTSGVHTFPAVLQSSGLYSLSSVVTVPSSSLGTQTYICNVNHKPSNTKVDKKVEPKSCGGGGSGGGGSDIQMTQSPSSVSASVGDRVTITCRASQGISSWLAWYQQKPGKAPKLLIYAASSLQSGVPSRFSGSGSGTDFTLTISSLQPEDFATYYCQQGVSFPRTFGGGTKVEIKGKPGSGKPGSGKPGSGKPGSEVQLVESGGGLVKPGGSLRLSCAASGFTFSSYSMNWVRQAPGKGLEWVSSISSSSSYIYYADSVKGRFTISRDNAKNSLYLQMNSLRAEDTAVYYCARGAPMGAAAGWFDPWGQGTLVTVSSGGGGSGGGGSKTHTCPPCPAPELLGGPSVFLFPPKPKDTLMISRTPEVTCVVVDVSHEDPEVKFNWYVDGVEVHNAKTKPREEQYNSTYRVVSVLTVLHQDWLNGKEYKCKVSNKALPAPIEKTISKAKGQPREPQVYTLPPSREQMTKNQVKLTCLVKGFYPSDIAVEWESNGQPENNYKTTPPVLDSDGSFFLYSKLTVDKSRWQQGNVFSCSVMHEALHNHYTQKSLSLSPGK
chain 3: B1 chain 3
B5: XENP41344 (1D7B4, mAb-scFv VLVH) (antibody)
chain 1: B1 chain 1
chain 2: not shown
chain 3: B1 chain 3
B6: XENP40375 (1D7B4, 1+1 VHVL) (antibody)
chain 1: B1 chain 1
chain 2: not shown
chain 3: B1 chain 3
B7: XENP41333 (LB_1001, 1+1 VLVH) (antibody)
chain 1: B1 chain 1
chain 2: not shown
chain 3: B1 chain 3
B8: XENP40891 (LB_1002, mAb-scFv VHVL) (antibody)
chain 1: B1 chain 1
chain 2: not shown
chain 3: B1 chain 3
B9: XENP41336 (1D7B4, 1+1 VLVH) (antibody)
chain 1: B1 chain 1
chain 2: not shown
chain 3: B1 chain 3
B10: XENP40590 (1D7B4, 2+1 VHVL) (antibody)
chain 1: B1 chain 1
chain 2: not shown
chain 3: B1 chain 3
B11: XENP41342 (LB_1002, mAb-scFv VLVH) (antibody)
chain 1: B1 chain 1
chain 2: not shown
chain 3: B1 chain 3
B12: XENP40584 (LB_1001, 2+1 VHVL) (antibody)
chain 1: B1 chain 1
chain 2: not shown
chain 3: B1 chain 3
B13: XENP41335 (1D2B4, 1+1 VLVH) (antibody)
chain 1: B1 chain 1
chain 2: not shown
chain 3: B1 chain 3
B14: XENP40558 (1D7B4, mAb-scFv VHVL) (antibody)
chain 1: B1 chain 1
chain 2: not shown
chain 3: B1 chain 3
B15: XENP41341 (LB_1001, mAb-scFv VLVH) (antibody)
chain 1: B1 chain 1
chain 2: not shown
chain 3: B1 chain 3
B16: XENP41334 (LB_1002, 1+1 VLVH) (antibody)
chain 1: B1 chain 1
chain 2: not shown
chain 3: B1 chain 3
B17: XENP40457 (LB_1002, 1+1 VHVL) (antibody)
chain 1: B1 chain 1
chain 2: not shown
chain 3: B1 chain 3
B18: XENP41340 (1D7B4, 2+1 VLVH) (antibody)
chain 1: B1 chain 1
chain 2: not shown
chain 3: B1 chain 3
B19: XENP41337 (LB_1001, 2+1 VLVH) (antibody)
chain 1: B1 chain 1
chain 2: not shown
chain 3: B1 chain 3
B20: XENP40555 (1D2B4, mAb-scFv VHVL) (antibody)
chain 1: B1 chain 1
chain 2: not shown
chain 3: B1 chain 3
B21: XENP40372 (1D2B4, 1+1 VHVL) (antibody)
chain 1: B1 chain 1
chain 2: not shown
chain 3: B1 chain 3

Molecular target: T1, XENP23311 (His-tagged NKG2D-Fc) (human, UniProt P26718 78-216)
T1 chain: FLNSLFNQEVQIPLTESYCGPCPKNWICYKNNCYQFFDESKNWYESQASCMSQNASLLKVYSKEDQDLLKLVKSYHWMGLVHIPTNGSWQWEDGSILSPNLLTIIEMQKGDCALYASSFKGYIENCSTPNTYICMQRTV
Assay: Octet

B1 and B2 are within 1.5-fold of each other in Kd: 158 nM for the first, 115 nM for the second.

Compared with B3, B4 is 6.6-fold higher in Kd: 95.1 nM for the first, 630 nM for the second. The first binds more tightly here.

Compared with B5, B6 is 3.7-fold lower in Kd: 28.9 nM for the first, 7.72 nM for the second.

Going from B7 to B8, the Kd rises from 42 nM to 327 nM (7.8-fold). The first binds more tightly here.

First: B9
Second: B10
The Kd of the first is 1.6-fold lower: 13.9 nM for the first, 21.9 nM for the second.

First: B11
Second: B12
The Kd of the first is 5.6-fold higher: 680 nM for the first, 122 nM for the second.

B13 and B14 are within 1.5-fold of each other in Kd: 41.7 nM for the first, 28.8 nM for the second.

Going from B15 to B16, the Kd falls from 359 nM to 97.3 nM (3.7-fold).

Going from B17 to B18, the Kd falls from 458 nM to 18.4 nM (25-fold). The second binds more tightly here.

Compared with B19, B20 is 3.3-fold lower in Kd: 278 nM for the first, 83.8 nM for the second. The second binds more tightly here.

In the case of B21, the Kd is reported as 35.7 nM.
